Series [1] concerns the molecule itself. Kind of series: Number and Brightness (N&B) analysis of TIRF image sequences; living CHO cells transfected with one mEGFP-tagged subunit alone; plasma membrane, 37 °C, 5% CO2; GAP-mEGFP as monomeric reference; oligomerization state corrected for protein maturation and misfolding.
The target of series [2] is T1, KCNQ1-mCherry (human KCNQ1, C-terminally mCherry-tagged) (human, UniProt P51787 1-676).
T1 construct: KCNQ1 (Kv7.1) alpha subunit, human; cDNA in a CMV-based expression construct; also called Q1 in E2(Q1); source: CHO cells, co-transfected (Lipofectamine 3000), in living cells; not shown: mCherry, C-terminal, kept
T1 sequence (looked up): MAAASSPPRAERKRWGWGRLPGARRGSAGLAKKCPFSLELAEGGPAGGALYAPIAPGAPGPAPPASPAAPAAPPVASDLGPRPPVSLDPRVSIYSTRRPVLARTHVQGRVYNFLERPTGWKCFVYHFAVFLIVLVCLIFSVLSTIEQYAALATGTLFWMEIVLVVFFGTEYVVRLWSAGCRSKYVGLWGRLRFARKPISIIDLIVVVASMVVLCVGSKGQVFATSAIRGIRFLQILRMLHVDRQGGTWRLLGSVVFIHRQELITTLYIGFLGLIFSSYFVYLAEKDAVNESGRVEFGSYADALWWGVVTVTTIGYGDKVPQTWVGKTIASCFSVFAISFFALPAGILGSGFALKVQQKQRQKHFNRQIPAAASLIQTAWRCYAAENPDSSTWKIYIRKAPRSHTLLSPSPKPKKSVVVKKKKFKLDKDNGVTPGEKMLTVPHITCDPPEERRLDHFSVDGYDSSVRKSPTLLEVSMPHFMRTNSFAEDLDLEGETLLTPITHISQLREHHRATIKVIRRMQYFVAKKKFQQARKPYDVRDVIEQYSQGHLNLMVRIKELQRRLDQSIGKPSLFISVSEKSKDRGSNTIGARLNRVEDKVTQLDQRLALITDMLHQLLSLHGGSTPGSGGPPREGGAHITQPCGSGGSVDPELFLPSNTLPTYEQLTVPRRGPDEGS
The series is described as follows: Number and Brightness (N&B) analysis of TIRF image sequences; living CHO cells co-transfected with KCNE2-mEGFP and KCNQ1-mCherry; cells with fast micro-diffusion, E2f(Q1) (Dmicro > 0.02 µm^2 s^-1); 37 °C, 5% CO2; GAP-mEGFP as monomeric reference. To be noted: partners not purified.

For orientation: stoichiometry N means a count of units in the complex or per binding partner.

B1: KCNE2-mEGFP (human KCNE2, C-terminally mEGFP-tagged) (natural protein, UniProt Q9Y6J6 1-123, looked up)
chain: MSTLSNFTQTLEDVFRRIFITYMDNWRQNTTAEQEALQAKVDAENFYYVILYLMVMIGMFSFIIVAILVSTVKSKRREHSNDPYHQYIVEDWQEKYKSQILNLEESKATIHENIGAAGFKMSP
notes: KCNE2, human, single transmembrane segment beta subunit; cDNA in a CMV-based expression construct; also called KCNE2 subunit; E2(Q1), E2f(Q1), E2s(Q1) when co-expressed with KCNQ1-mCherry; source: CHO cells, transfected (Lipofectamine 3000), in living cells; not shown: mEGFP, C-terminal, kept
Consider B1, for which the “stoichiometry N” value is 2 in series [1] and 4 E2 subunits per KCNQ1-KCNE2 complex in series [2].

The record behind these values is publication PMC8140153, “Fluorescence Fluctuation Spectroscopy enables quantification of potassium channel subunit dynamics and stoichiometry” (Scientific Reports, 2021).
